# Test results published in patent US20020028482A1, “NIP45 HUMAN HOMOLOG” (priority 1997, published 2002).
# T1: hNFAT1 (Homo sapiens, UniProt Q13469)
# T1 construct: contains the coding region for 400-692 amino acid residues of hNFAT 1; expressed in transfected cells; host or cells: yeast strain EGY48/p8op-lacZ
# T1 sequence (Q13469 400-692): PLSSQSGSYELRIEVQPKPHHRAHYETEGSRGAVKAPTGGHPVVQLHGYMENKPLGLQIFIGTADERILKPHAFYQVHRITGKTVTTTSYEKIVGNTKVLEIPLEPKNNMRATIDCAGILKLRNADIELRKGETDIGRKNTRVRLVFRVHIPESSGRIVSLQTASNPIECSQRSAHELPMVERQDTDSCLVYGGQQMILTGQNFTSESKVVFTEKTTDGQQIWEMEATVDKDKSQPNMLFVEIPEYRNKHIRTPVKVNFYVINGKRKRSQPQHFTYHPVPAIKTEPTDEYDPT
# Columns and labels:
# LacZ = LacZ (Escherichia coli, UniProt P00722); conditions: LacZ substrate
# Chain of LacZ (P00722 whole entry): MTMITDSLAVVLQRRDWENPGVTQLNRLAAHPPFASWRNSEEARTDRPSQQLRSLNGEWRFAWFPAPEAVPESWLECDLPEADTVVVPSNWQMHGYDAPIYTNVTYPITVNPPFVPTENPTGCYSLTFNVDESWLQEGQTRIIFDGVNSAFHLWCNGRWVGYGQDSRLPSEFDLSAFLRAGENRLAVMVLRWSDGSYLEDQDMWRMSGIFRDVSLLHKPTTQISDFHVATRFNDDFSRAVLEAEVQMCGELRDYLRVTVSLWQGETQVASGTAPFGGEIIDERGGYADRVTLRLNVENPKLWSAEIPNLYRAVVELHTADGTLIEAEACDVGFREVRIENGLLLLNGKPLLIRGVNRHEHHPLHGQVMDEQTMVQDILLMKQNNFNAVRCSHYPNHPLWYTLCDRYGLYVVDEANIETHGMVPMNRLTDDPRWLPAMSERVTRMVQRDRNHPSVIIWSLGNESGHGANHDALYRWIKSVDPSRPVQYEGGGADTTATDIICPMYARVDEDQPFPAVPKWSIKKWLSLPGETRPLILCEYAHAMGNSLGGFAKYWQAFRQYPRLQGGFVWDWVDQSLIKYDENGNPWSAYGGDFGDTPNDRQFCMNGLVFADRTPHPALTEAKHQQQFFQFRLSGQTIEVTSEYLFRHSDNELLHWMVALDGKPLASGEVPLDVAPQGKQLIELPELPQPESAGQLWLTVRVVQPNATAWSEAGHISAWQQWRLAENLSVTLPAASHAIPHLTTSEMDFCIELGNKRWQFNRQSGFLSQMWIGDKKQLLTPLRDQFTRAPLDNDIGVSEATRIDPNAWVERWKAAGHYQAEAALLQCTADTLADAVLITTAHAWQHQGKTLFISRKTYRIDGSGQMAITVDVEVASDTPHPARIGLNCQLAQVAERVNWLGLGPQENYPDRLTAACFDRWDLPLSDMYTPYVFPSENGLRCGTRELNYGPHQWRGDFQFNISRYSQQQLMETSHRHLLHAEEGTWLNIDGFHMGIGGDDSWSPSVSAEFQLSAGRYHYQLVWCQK
# Protocol: (1) CPRG is used rather than ONPG. […] In assays SmM (10×Km) is used which we take to be approximately saturating.
# Grow yeast cultures overnight. Dilute back to OD 0.05 to 0.1 next day and allow to continue growing. When they have reached an OD of about 1, make a set of dilutions in culture medium. Add 120 ul of each dilution to the wells of a microtitre plate. Start the reaction by addition of 30 ul reaction buffer and measure the initial rate of reaction (kinetic read over 10 minutes).
# HepG2 cells = conditions: overexpression in HepG2 cells; cited from earlier work
# hNFAT1 = biological target: T1, hNFAT1; assay: yeast two hybrid assay, interaction with hNFAT1; format: binding; conditions: colonies, FIG. 11 and FIG. 12
# Description: A 879 bp DNA fragment, corresponding to positions 1418-2296 of hNFAT1 nucleic acid sequence (GenBank Accession number U43342), was PCR amplified via standard methods using Clontech human lymph node Marathon Ready cDNA as template. CLONTECH, Palo Alto, Calif. The resulting PCR product was cloned into the bait vector, plexA-BD (CLONTECH). The hybrid construct (plexA-BD-hNFAT1-BD) contains the coding region for 400-692 amino acid residues of hNFAT 1, which corresponds to the DNA binding region of the hNFAT 1 protein. The full length hNIP45H cNDA was cloned into prey vector pB42AD (CLONTECH). This hybrid construct (pB42AD-hNIP45H) contains the entire open reading frame of […].
# Yeast strain EGY48/p8op-lacZ (CLONTECH) was transformed with the plexA-BD-hNFAT1-BD plasmid. […] Yeast strain EGY/p8op-lacZ/plexA-BD-hNFAT1-BD was subsequently transformed with pB42AD-hNIP45H prey construct. Transformants from SD/-UHW plates were subsequently tested on a 4-plate test (SD/-UHW, X-gal vs. GR/-UHW, X-gal, and SD/-UHWL vs. GR/-UHWL).
# mNFATp = assay: yeast two hybrid assay, interaction with mNFATp; format: binding, murine; conditions: colonies, FIG. 11 and FIG. 12
# Chain of mNFATp (Q60591 394-576 limits assumed): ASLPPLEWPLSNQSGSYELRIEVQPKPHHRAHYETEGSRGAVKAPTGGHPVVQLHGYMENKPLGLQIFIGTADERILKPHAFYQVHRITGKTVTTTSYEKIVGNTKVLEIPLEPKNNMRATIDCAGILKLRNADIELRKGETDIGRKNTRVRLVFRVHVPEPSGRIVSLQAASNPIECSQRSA
# Protocol: An hNIP45 AD-fusion construct is co-transformed into the yeast host EGY48 (CLONTECH, cat # K1609-1) with the original murine LexA-NFATp bait and reporter, pSH18-34 (CLONTECH, cat# K1609-1). The functional conservation of hNIP45 is assessed by its ability of interacting with the NFATp protein to activate the reporter gene expression. Hodge, M., et al., NF-AT-Driven Interleukin-4 Transcription Potentiated by NIP45, Science, 274:1903 (1996). See, Example VI infra.
molecule,measurement,setting,value
"O=S1(=O)OC(c2ccc(O)c(Cl)c2)(c2ccc(O[C@@H]3O[C@H](CO)[C@H](O)[C@H](O)[C@H]3O)c(Cl)c2)c2ccccc21 (stereo partly drawn) [CPRG, Chlorophenol red-b-D-galacopyranoside]",Km,LacZ,~500 µM
"mNIP45: murine NIP45, NF-ATp interacting protein, 412 amino acid residues, SEQ ID NO:4 (protein, listed as Mus musculus) MAEPLRGRGPRSRGGRGARRARGARGRCPRARQSPARLIPDTVLVDLVSDSDEEVLEVADPVEVPVARLPAPAKPEQDSDSDSEGAAEGPAGAPRTLVRRRRRRLLDPGEAPVVPVYSGKVQSSLNLIPDNSSLLKLCPSEPEDEADLTNSGSSPSEDDALPSGSPWRKKLRKKCEKEEKKMEEFPDQDISPLPQPSSRNKSRKHTEALQKLREVNKRLQDLRSCLSPKQHQSPALQSTDDEVVLVEGPVLPQSSRLFTLKIRCRADLVRLPVRMSEPLQNVVDHMANHLGVSPNRILLLFGESELSPTATPSTLKLGVADIIDCVVLASSSEATETSQELRLRVQGKEKHQMLEISLSPDSPLKVLMSHYEEAMGLSGHKLSFFFDGTKLSGKELPADLGLESGDLIEVWG",increase of endogenous IL-4 production,HepG2 cells,200 fold
same,interaction with hNFAT1,hNFAT1,does not interact with hNFAT1 very well
same,interaction with mNFATp,mNFATp,interacts well
"hNIP45: novel human NIP45 polypeptide, 419 amino acid residues, SEQ ID NO:3, IL-4 transcriptional trans-activator (protein, listed as Homo sapiens) MAEPVGKRGRWSGGSGAGRGGRGGWGGRGRRPRAQRSPSRGTLDVVSVDLVTDSDEEILEVATARGAADEVEVEPPEPPGPVASRDNSNSDSEGEDRRPAGPPREPVRRRRRLVLDPGEAPLVPVYSGKVKSSLRLIPDDLSLLKLYPPGDEEEAELADSSGLYHEGSPSPGSPWKTKLRTKDKEEKKKTEFLDLDNSPLSPPSPRTKSRTHTRALKKLSEVNKRLQDLRSCLSPKPPQGQEQQGQEDEVVLVEGPTLPETPRLFPLKIRCRADLVRLPLRMSEPLQSVVDHMATHLGVSPSRILLLFGETELSPTATPRTLKLGVADIIDCVVLTSSPEATETSQQLQLRVQGKEKHQTLEVSLSRDSPLKTLMSHYEEAMGLSGRKLSFFFDGTKLSGRELPADLGMESGDLIEVWG",interaction with hNFAT1,hNFAT1,interacts well
